Results reported in paper PMC8279337.

Target: Adipose Triglyceride Lipase (UniProt Q96AD5)
Chain of UniProt Q96AD5 (Q96AD5 whole entry): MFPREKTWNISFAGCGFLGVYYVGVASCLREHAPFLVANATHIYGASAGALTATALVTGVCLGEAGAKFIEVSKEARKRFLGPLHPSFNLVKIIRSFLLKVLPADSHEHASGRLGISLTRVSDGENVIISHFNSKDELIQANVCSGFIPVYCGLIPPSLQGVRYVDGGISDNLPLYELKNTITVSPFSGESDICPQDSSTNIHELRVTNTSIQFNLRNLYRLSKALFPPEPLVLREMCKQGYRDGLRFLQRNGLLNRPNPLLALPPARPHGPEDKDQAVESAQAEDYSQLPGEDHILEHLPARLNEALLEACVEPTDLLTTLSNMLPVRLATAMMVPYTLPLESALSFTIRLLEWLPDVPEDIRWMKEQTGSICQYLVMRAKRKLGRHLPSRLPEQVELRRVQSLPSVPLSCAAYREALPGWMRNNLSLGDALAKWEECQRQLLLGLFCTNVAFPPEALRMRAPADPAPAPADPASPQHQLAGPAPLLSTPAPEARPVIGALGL

In the case of “MBP-G0S2 (full length G0S2 with N-terminal His6 and maltose-binding protein) (from UniProt Q61585 1-103) (natural protein)”, the triglyceride hydrolase activity of the ATGL lysate on [9,10-3H]-triolein (DPM), 2 and 10 ug MBP-G0S2, compared with HisMBP; DPM smaller at 10 ug than at 2 ug is reported as 60%.
